Assay results: publication PMC10721955

Target: Flag-tagged mouse MRTF-A (MAL fl), in vitro translated
Test: in vitro protein binding assay (IP/IB of in vitro translated tagged proteins), quantified
Settings: IP: HA-gel (HA-CRP2), three independent experiments, parent: 100, read off a plot

Row | percent of parent | Substance
1 | 21% | HA-tagged human CRP2 (cysteine-and glycine-rich protein 2), in vitro translated (from UniProt Q16527) 154E/L; 156T/D; 157T/D
2 | 22% | HA-tagged human CRP2 (cysteine-and glycine-rich protein 2), in vitro translated (from UniProt Q16527) 153L/D; 158L/D
